Reference: patent publication US20220089776A1 (OREGON HEALTH AND SCIENCE UNIVERSITY, published 2022)

Legend:
[1] = target: T1, human blood protein factor XII (FXII) (human, UniProt P00748 20-615); experiment: cell-based or functional assay
T1 sequence (looked up): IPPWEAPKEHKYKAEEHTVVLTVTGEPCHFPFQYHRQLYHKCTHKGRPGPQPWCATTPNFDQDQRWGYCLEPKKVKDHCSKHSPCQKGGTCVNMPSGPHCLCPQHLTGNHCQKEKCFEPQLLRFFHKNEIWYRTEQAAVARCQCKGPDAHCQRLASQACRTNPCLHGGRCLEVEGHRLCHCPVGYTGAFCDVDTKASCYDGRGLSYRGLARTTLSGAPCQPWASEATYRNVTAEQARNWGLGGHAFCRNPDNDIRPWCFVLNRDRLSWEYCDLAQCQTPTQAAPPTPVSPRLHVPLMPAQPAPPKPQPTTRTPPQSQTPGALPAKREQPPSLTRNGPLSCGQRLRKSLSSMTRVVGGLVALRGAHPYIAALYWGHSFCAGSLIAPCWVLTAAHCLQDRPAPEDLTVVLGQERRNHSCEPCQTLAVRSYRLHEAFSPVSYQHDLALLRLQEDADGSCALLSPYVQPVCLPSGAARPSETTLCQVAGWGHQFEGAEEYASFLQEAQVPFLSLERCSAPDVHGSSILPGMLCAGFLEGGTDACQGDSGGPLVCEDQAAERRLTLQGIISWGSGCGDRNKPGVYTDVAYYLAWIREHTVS

[2] = target: T2, rabbit FXII (rabbit, UniProt G1SIB7 20-617); experiment: Western blot of platelet-poor plasma; primary antibody murine 5C12
T2 construct: Plasma protein
T2 sequence: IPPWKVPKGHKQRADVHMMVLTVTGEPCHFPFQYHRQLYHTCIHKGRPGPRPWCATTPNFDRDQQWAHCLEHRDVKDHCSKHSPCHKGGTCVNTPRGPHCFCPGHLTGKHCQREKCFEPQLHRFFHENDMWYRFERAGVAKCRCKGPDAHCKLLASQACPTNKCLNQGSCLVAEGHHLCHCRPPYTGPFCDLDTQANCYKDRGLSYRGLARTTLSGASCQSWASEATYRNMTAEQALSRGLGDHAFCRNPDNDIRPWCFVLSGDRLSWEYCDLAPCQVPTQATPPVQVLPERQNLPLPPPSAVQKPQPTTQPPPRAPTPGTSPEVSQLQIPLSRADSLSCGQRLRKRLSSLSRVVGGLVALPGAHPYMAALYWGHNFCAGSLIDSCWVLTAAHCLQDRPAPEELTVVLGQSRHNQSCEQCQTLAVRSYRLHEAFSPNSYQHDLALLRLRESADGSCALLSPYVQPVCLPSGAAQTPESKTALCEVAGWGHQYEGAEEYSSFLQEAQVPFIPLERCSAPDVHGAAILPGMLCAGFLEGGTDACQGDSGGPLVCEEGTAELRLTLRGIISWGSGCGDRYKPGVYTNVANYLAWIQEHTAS
Excerpt: (§1) FIG. 3A-3C: Species specificity of 5C12. (FIG. 3A) Western blots of platelet poor plasmas from different species (indicated above each lane) size fractionated by SDS-PAGE […]. Species included in alphabetical order: African green monkey, baboon, beagle, cat, cattle, chicken, cynomolgus monkey, dog, elephant, giant anteater, horse, human, human deficient in FXII, llama, marmoset, pig, rabbit, raccoon, rat, red kangaroo, rhesus macaque and tiger. Human plasma and human deficient in FXII plasma were used in all gels as a positive and negative control, respectively. […] 5C12 also recognizes both the alpha (comprising both the light and heavy chain of FXII) and the beta (comprising only the light chain and a nonapeptide fragment of the heavy chain) form of activated FXII (FXIIa) (FIG. 3C). The primary antibody for all Western blots was murine 5C12, the secondary antibody was goat-anti-mouse polyclonal.

[3] = target: T3, rhesus macaque FXII (rhesus macaque, UniProt F7FY72 20-615); experiment: as above
T3 construct: Plasma protein
T3 sequence: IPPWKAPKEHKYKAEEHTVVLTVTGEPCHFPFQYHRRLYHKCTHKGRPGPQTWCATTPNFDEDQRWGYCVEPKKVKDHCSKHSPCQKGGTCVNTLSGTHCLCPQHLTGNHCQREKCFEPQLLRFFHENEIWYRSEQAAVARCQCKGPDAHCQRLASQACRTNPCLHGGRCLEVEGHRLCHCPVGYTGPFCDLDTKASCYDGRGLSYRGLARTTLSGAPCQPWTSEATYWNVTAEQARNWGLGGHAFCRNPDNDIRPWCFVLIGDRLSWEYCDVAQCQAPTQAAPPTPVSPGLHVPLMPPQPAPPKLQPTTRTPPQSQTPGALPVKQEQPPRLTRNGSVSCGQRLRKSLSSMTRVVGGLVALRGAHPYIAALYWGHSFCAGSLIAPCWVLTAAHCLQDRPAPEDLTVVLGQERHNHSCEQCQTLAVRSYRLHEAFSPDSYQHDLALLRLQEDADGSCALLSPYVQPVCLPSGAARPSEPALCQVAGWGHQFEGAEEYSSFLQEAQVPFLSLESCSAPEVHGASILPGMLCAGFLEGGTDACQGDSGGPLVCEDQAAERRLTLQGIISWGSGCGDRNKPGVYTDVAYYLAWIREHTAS
Excerpt: as §1

[4] = target: T4, pig FXII (pig, UniProt O97507 20-616); experiment: as above
T4 construct: mature; Plasma protein
T4 sequence (looked up): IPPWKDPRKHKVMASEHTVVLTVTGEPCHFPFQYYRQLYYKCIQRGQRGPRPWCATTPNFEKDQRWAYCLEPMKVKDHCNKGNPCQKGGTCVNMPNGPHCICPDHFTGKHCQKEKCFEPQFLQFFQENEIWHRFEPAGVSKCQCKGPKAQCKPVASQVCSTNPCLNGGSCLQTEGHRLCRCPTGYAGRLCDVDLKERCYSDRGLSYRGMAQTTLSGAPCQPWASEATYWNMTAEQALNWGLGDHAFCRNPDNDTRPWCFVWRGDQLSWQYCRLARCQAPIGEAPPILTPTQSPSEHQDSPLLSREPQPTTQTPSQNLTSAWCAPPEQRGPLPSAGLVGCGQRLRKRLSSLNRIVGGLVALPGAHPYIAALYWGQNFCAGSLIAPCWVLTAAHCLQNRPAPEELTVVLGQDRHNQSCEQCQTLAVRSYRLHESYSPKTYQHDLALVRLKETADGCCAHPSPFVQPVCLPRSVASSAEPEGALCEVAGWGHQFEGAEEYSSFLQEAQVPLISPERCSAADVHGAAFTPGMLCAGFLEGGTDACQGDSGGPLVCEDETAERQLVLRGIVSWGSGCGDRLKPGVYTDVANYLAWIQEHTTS
Excerpt: as §1

B1: mouse monoclonal antibody 5C12 (antibody, mouse IgG1, kappa, V domains shown)
VH: DVQLQESGPDLVKPSQSLSLTCTVTGYSITSGYSWHWIRQFPGNNLEWMGYIQYSGNTNSNPSLKSRISITRDTSKNQFFLHLNSVTTEDTATYYCARWGSFDYWGQGTTLTVSS
VL: QIVLTQSPAIMSASPGEKVTMTCSASSSVNYMHWYQQKSGTSPKRWIYDTSKLASGVPARFSGSGSGTSYSLTISSMEAGDAATYYCQQWSGNPPTFGGGTILEIKR
notes: Purified from hybridoma; also called AB053; 5C12 MAb
IC50 (read off the curve): FXIIa amidolytic activity after activation of 50 nM FXII with long polyphosphates, PK and HK [1]: ~10 nM
binding result [2]: no binding
binding result [3]: no binding
binding result [4]: no binding
